Substrate in the series: OC[C@H]1O[C@@](CO)(O[C@H]2O[C@H](CO)[C@@H](O)[C@H](O)[C@H]2O)[C@@H](O)[C@@H]1O
The series can be described thus: kinetics of glucose and fructose release; nonlinear Michaelis-Menten fit. It is filed as biochemical, Celerinatantimonas diazotrophica. Particulars: hydrolysis reaction; assay conditions for Cedi-LS not stated separately. The source says: kinetics of glucose and fructose release; nonlinear Michaelis-Menten fit on Cedi-LS

As a reminder, the Km is the concentration of substrate that gives half-maximal velocity. For orientation: kcat means the maximal rate divided by the concentration of active sites. Broadly, the kcat/Km is the second-order rate constant that governs catalysis at low substrate concentration.

B1: Cedi-LS (Celerinatantimonas diazotrophica) (protein)
chain: MTLQDKVMTTAWSRADALKVHADDPTTTQPEVSISFPTMDENLFIWDTLPLRTLDGSIVSVDGWSVIFTLTAIKDPETYKNADGSYDITTDWENRHGRARIYYWYAKDSKNWILGGRVMREGVSPTTREWAGTPILLNDQGDIELYYTCVTPGATIAKVRGKITTTENAVELSEFDHVTELFSADGFYYQTEEQNQFWNFRDPSPFIDPKDGRLYMVFEGNVAGNRGSHEITTTDMGDVPPGYSDVGGARYQAGCIGLAVATDTDGNNWQLLPPLITAVGVNDQTERPHFVFKDGKYYLFTISHKYTYADGLTGPDGVYGFVSDSLFGPYQPLNGSGLVLGNPSSQPFQTYSHCVMPNGLVTSFIDSVPSTSDDDYDGDYRIGGTEAPTVQIKLEGNQTFMVKEFDYGFIPPMKNIVLQ
notes: recombinant levansucrase from the authors' earlier work; construct not described here
Regarding B1, the Km stood at 57 ± 2 mM, the kcat turned out to be 332 ± 22 s⁻¹ and the kcat/Km turned out to be 5800 M⁻¹ s⁻¹.
